# From patent publication US20080233103
# System: N-formyl-Met-Ala
substance,measurement,value
"recombinant histidine-tagged Mycobacterium tuberculosis peptide deformylase (mPDF), wild-type construct from pET-mPDF",Michalis-Menton constant (Km),4.1 ± 0.2 mM
same,catalytic efficiency,1220 ± 6 M⁻¹ s⁻¹
same,velocity maxima (Vmax),13.3±0.7 µmoles/min/mg protein
